Where two headings read alike, the source gives them in different places.

Assay [1] addresses PRRSV viral lysate (Porcine Reproductive and Respiratory Syndrome Virus). In words: ELISA, plate coated with 1.56 ng PRRSV viral lysate, 1 µg antibody.
For assay [2] the target is unchanged.
Assay [3] has the same target. In words: ELISA Test 2, plate coated with viral lysate, antibody diluted 1:4000.
In assay [4] the target is porcine coronavirus lysate. The description is as above.
Assay [5] concerns the target PRRSV viral lysate (Porcine Reproductive and Respiratory Syndrome Virus). In words: ELISA, plate coated with 50.00 ng PRRSV viral lysate, 1 µg antibody.
The target in assay [6] is porcine pseudorabies virus lysate. In words: ELISA Test 1, plate coated with viral lysate, antibody diluted 1:4000, Group 2.
The target in assay [7] is PRRSV viral lysate (Porcine Reproductive and Respiratory Syndrome Virus). The assay is described as above.
In assay [8] the target is porcine coronavirus lysate. Described as above.
Assay [9] has as its target PRRSV viral lysate (Porcine Reproductive and Respiratory Syndrome Virus). In words: ELISA, plate coated with 12.50 ng PRRSV viral lysate, 1 µg antibody.
Assay [10] shares this target. As to the kind of experiment: ELISA, plate coated with 6.25 ng PRRSV viral lysate, 1 µg antibody.
The target is the same in assay [11]. In words: ELISA, plate coated with 0.78 ng PRRSV viral lysate, 1 µg antibody.
Assay [12] concerns the target porcine pseudorabies virus lysate. As to the kind of experiment: ELISA Test 1, plate coated with viral lysate, antibody diluted 1:4000, Group 1.
Assay [13] deals with PRRSV viral lysate (Porcine Reproductive and Respiratory Syndrome Virus). The description is as above.
In assay [14] the target is porcine coronavirus lysate. The assay is described as above.
Assay [15] deals with PRRSV viral lysate (Porcine Reproductive and Respiratory Syndrome Virus). In words: ELISA, plate coated with 25.00 ng PRRSV viral lysate, 1 µg antibody.
For assay [16] the target is unchanged. As to the kind of experiment: ELISA, plate coated with 3.13 ng PRRSV viral lysate, 1 µg antibody.

B1: anti-PRRSV antibody 142 (antibody, V domains shown)
VH: EVQRVESGPGLVKPSQSLSLTCTVTGYSITNDYAWNWIRQFPGNKLEWMGYISYSGSTSYNPYLKSRISITRDTSKNQFFLQLNSVPTEDTATYYCARSTYGNYGYYYAMDCWGQGTSVTVSS
VL: DIVLTQSPASLAVSLGQRATISCRASESIEYYGTSLMQWYQQKPGQPPKLLIYAASNVESGVPARFSGSGSGTDFSLNIHPVEEDDIAMYFCQQSRKVPTFGGGTKLEIKR
Turning to B1, the OD450 in [1] was determined as 1.05 OD450; in [2] it was 1.58 OD450; in assay [3] it was 0.411 OD450; in assay [4] it was 0.136 OD450; in assay [5], 1.36 OD450; in assay [6], 0.08 OD450. Besides, the OD450 was determined as 0.344 OD450 in [7]; 0.133 OD450 in assay [8]; 1.11 OD450 in assay [9]; 1.16 OD450 in assay [10]; 0.984 OD450 in [11]; 0.082 OD450 in assay [12]. For the same molecule, the OD450 stood at 0.385 OD450 in [13], 0.148 OD450 in assay [14], 1.3 OD450 in assay [15] and 0.959 OD450 in assay [16].

These data come from patent publication US12625138.
